Laboratory results as given in the DeepSol protein solubility set.

assay: soluble on expression in E. coli; label from the status in PepcDB or PDB records

| Sequence | soluble on expression in E. coli |
| --- | --- |
| MSKKPVALIILDGFALRDETYGNAVAQANKPNFDRYWNEYPHTTLKACGEAVGLPEGQMGNAEVGHLNIGAGRIVYQSLTRINIAIREGEFDRNETFLAAMNHVKQHGTSLHLFGLLSDGGVHSHIHHLYALLRLAAKEGVKRVYIHGFLDGRDVGPQTAPQYIKELQEKIKEYGVGEIATLSGRYYSMDRDKRWDRVEKAYRAMVYGEGPTYRDPLECIEDSYKHGIYDEFVLPSVIVREDGRPVATIQDNDAIIFYNFRPDRAIQISNTFTNEDFREFDRGPKHPKHLFFVCLTHFSETVAGYVAFKPTNLDNTIGEVLSQHGLRQLRIAETEKYPHVTFFMSGGREEEFPGEDRILINSPKVPTYDLKPEMSAYEVTDALLKEIEADKYDAIILNYANPDMVGHSGKLEPTIKAVEAVDECLGKVVDAILAKGGIAIITADHGNADEVLTPDGKPQTAHTTNPVPVIVTKKGIKLRDGGILGDLAPTMLDLLGLPQPKEMTGKSLIVK | soluble |
| MAHHHHHHMLSTSQAFLASLRYRRPYWMLFLKGADNWKIYTVIQQPDHQRTEMLYQAWLGGLDRPYVRPKCMAHQPVWLSKKRHLLQKARLEGPETSVEKYVLEWYKKFHSFQGTDRPTAEDLHTAFDLVERPLDLSYACQLLNQCRNHYYIRLSDDSFEIFLEACLRVDRRDCAIYALEHAEELGFWHVSDNCRRYLAGEQTWYKRSPVDLLYYPLEENAERNTAVTSGTAASAVAASDKVKGDEKVEGAPRTSATTSATAASAENEGEAEVTDDEIARLQAELEALEREIGSEGADGTDKD | not soluble |
| MPLALDDGDVNLSELRAFDLLGRCETGSIVNTVSLSSTGNYLAAGGFDHKVYYYDSRGTQLWNYTTGDIVYTVSISSDGSRIAAGSNDRKVYFFNREGELLWSRKTGGNINSVAVSSEGLYIATGGEDGKVYFLDKDGKLLWSFNSGDAVRSVAISRDGDYVLEHHHHHH | not soluble |
| NVLPSELPAGVDWRSRGCVTPVKDQRDCGSCWAFSTTGALEGAHCAKTGKLVSLSEQELMDCSRAEGNQSCSGGEMNDAFQYVLDSGGICSEDAYPYLARDEECRAQSCEKVVKILGFKDVPRRSEAAMKAALAKSPVSIAIEADQMPFQFYHEGVFDASCGTDLDHGVLLVGYGTDKESKKDFWIMKNSWGTGWGRDGYMYMAMHKGEEGQCGLLLDASFPVM | soluble |
| MALTATVRRAELQISDMDRGYYANHSLTLAQHPSETDERLMVRLLAFALFADDRLEFGRGLSNDDEPDLWRRDYTGDPDLWIDLGQPDESRVRKACNRSREAVVIGYGGQATETWWKKHANAMGRYRNLRVIELDSQATEALGALIQRGMRFDVIIQDGEVQMLADHGSVTLTPMVRQAPAE | soluble |
| MIGFAYLRLQKPSVYVIASQHFDGSIAAGLFESFGFKNIRGSSKKGGVKVLIEGLKRLKEGCDVAITPDGPKGPRHSIADGVIALAQKSGVGISACRVVCKNAWRLNTWDQFEIPKPFSEVYYYMLESVIIPKEWELSRAKEYLKTRMDSVGFEEPQRGLGALEHHHHHH | soluble |
| KVNNIMKKLLSSMILIWGGLISFSNNITGPRHRIEISAGFINDRQNATMGNNIFISNSISYIPEWKIQVNKKFDVTFGPKVVLNFSNFITVSNGTAKAASSSNNANPVTITPSLILGGELDFNYSVKENLKIYTGLEVGTGIGFQISTVGSNVQNPEFRTSSKIALGVKINEKYNIAIYTADIKGLLGLEAGYTF | not soluble |
| MGSDKIHHHHHHMKIAVVGLGNIGFNLFSYINKKYPNSVVGVDIDAGRVNDLRSQGYRVTTDYRALTGIDIWLLAPSTGDQGENLFAALGEMIICPGALISIESTLPPGTMELVRKYLEGKGYRCGQDVYLIHVPHRVMFGVDETVCDTPRVMGAFTQACRDKGRQFYEPLVPQLVEVEDVRIAELSKVVENVKRYVDVAFAQELYQYCKDQGMDFAELRKAVNSKSNVELLGTDWGIGGECLPKDMRFLRKVCPSPLLEGAAIADQEYRDRILQQVGTHQNVLIKGLSYKAGVKDLKHSRGVDLVRALEEAGNTVWVVDPLFTPEELEAAGFKTVEKFDEADLQGWIVLEREKALK | not soluble |
| EEIDCNDKDLFKAVDAALKKYNSQNQSNNQFVLYRITEATKTVGSDTFYSFKYEIKEGDCPVQSGKTWQDCEYKDAAKAATGECTATVGKRSSTKFSVATQTCQITPAEGPVVTAQYDCLGCVHPISTQSPDLEPILRHGIQYFNNNTQHSSLFMLNEVKRAQRQVVAGLNFRMTYSIVQTNCSKENFLFLTPDCKSLWNGDTGECTDNAYIDIQLRIASFSQNCDIYPGKDFVQPPTKICVGCPRDIPTNSPELEETLTHTITKLNAENNATFYFKIDNVKKARVQVVAGKKYFIDFVARETTCSKESNEELTESCETKKLGQSLDCNAEVYVVPWEKKIYPTVNCQPLGMISLMKRPPGFSPFRSSRIGEIKEETTSHLRSCEYKGRPPKAGAEPASEREVS | not soluble |
| MAVENITMPQLGESVTEGTISKWLVNVGDHVNKYDPLAEVMTDKVNAEVPSSFTGIVKELIAGEGDTLAVGEVVCVIQVEGADEVAATAVEEKTKEEPKAEVNTPEKAPKAKQPTDGKPRFSPAVLKLAGEHNVDLDLVEGTGANGRITRKDILKLVESGNIPQAGAVKKEEAVAAVVEARPEAPKAAPVAQKVEAAKPVSVPTMPGDIEIPVTGVRKAIAANMLRSKHEAPHAWMMIEVDVTNLVSYRNSIKGDFKKREGFNLTFFAFFVKAVAQALKEYPQINSMWAGDKIVQKKDINLSIAVATEDELFVPVIKHADEKTIKGIAREITELAGKVRTKSLKADEMQGGTFTINNTGSFGSVQSMGIINYPQAAILQVESIVKRPVIMENGMFGARDMVNLCLSLDHRVLDGLICGKFLGRVKEILENTSENNTSVY | not soluble |
| MVLIIVRTLLMRISIKMIPLAYLNHFRKEHMKSRIHWAALGLLAAFAAQAETVTIEHRLGKTTLEQKPQRVVVIGVGALDAIDSFGIEPVAVSKFDGTPDYLAKYKSDKYPSAGSLFEPDFETIYTQKPDLIVIGPRASKSYDELSKIAPTIVFAAEADQGYWESTQQQWRNLGKVFAIEPAVEAKIEQVDAQFKSIMQYNQQHKSDAMLVMSSGGNLTTFGANSRFSSVYKDFGFSETVPVSKESSHGDLISFEYIREHNPKTLLVVDRDKVVTKGETNIRQTFENDLVKATTAYKNGHIAYLDVNAWYIAISGVKATEQMVADMKASVGMQ | not soluble |
| MGSDKIHHHHHHMEVDDVWDDTELIKMYDESLQEISKNETSAKITSRKFKGEDGKMYTWKVGGKCMAPYEENGEVTDYPATIDTIGGADNLEVGVTFIYYGGQAVVQMKDLWLNEEAIADAVKAENDLQKTKKTSTVNSVAHSNSKSTSSAPNTSMPFPSFAPPVPPNIIAMAPVNQKEAMNSMLMSWYMSGYHTGYYQALADQKNVQN | not soluble |
| MAHHHHHHMKGDAEVVDIGSEVLSVTFSNSGRRLAVLTMRQEISVYETVVPTEPIIIKTFQTSFDAAGGWNKTVGPRSANYNARFNVIAFSPEGEKIVAGGDSKWIVMYHATQGYMLKKWPVTTNQDVQGAEEQYQWRQMTEAGHVDDIDVDDADIHLRRGKIMEMPGSRHRHFATGKRQTALTARTMDLAFSCTGTEFVAATTDGLLMFSTRVARPKFQPLQLSANITTQQVRDQLDRGEPVMALMGAMKLGDKMLGVECLRRMPRDAIPVAVSSVPSVLFPLLVQWVSTEVEESRGIEQALLWAQSLMLHSNECTGGFAQERSAVIPALKVLQRGLQQHRALTDLAKENYFSLRYIIDMTKMQKDILQPAATVE | not soluble |
| GMQGIAFQDAYPDDLSHCYGCGRNNEQGHQLKSYWRGEQTIAHFMPKPFHTAIPGFVYGGLIASLIDCHGTGSASAAAQRALEQAGEQLDEPPRFVTAALNIDYLAPTPMGVELELVGEIKEVKPRKVVVEIALSADGKLCARGHMVAVKMPETMAATSA | soluble |
| MNVFYTREGVGDVLLVSLKPAADEERTFVRQGDVVRIMSERTGETVGYNIFSASSYYPFSGNGPLEVNEELVGVINDILAKNGFDEPIEADLSPKFVVGYVKEKTKHPNADKLSVCQVDVGGEVLQIVCGAPNVAEGQKVVVAKIGAVMPNGLVIQESELRGVRSSGMICSARELGLPNAPQEKGILVLSDEYEVGQPFVF | not soluble |
| MNQKDTRKETLEFNKLQKRLRRNVGNAITDYNMIEEGDVVMACISGGKDSFAMLDILLNLQKAAPIKFEVVAVNLDQKQPGFPEHILPEYFETLNIPYYIVDKDTYSVVKEKVPEGKTTCGLCSRLRRGTLYSFAEKIGATKLALGHHMDDIVETMFLNMFHGSRLKAMPPKLRSDDGRNVVIRPLTYCREKDLIKYAEHKDFPIIPCNLCGSQENLQRQAIKAMLIDWDKKTPGRVEAIFKSIQNVSPSQLADRELFDFVNLPLDRDGSREEYEFSEAVVSSTNIDESLFIDVTNI | soluble |
| EEFPFALGVQTLPQTCDEPKAHTSFQISLSVSYTGSRSASNMAIVDVKMVSGFIPLKPTVKMLERSNHVSRTEVSSNHVLIYLDKVSNQTLSLFFTVLQDVPVRDLKPAIVKVYDYYETDEFAIAEYNAPCSKDLGNA | soluble |
| QGQFFREIENLKEYFNASSPDVAKGGPLFSEILKNWKDESDKKIIQSQIVSFYFKLFENLKDNQVIQRSMDIIKQDMFQKFLNGSSEKLEDFKKLIQIPVDDLQIQRKAINELIKVMNDLS | soluble |
| MNYHQYYPVDIVNGPGTRCTLFVSGCVHECPGCYNKSTWRVNSGQPFTKAMEDQIINDLNDTRIKRQGISLSGGDPLHPQNVPDILKLVQRIRAECPGKDIWVWTGYKLDELNAAQMQVVDLINVLVDGKFVQDLKDPSLIWRGSSNQVVHHLRLEHHHHHH | soluble |
| MGSDKIHHHHHHVRVLAIRHVEIEDLGMMEDIFREKNWSFDYLDTPKGEKLERPLEEYSLVVLLGGYMGAYEEEKYPFLKYEFQLIEEILKKEIPFLGICLGSQMLAKVLGASVYRGKNGEEIGWYFVEKVSDNKFFREFPDRLRVFQWHGDTFDLPRRATRVFTSEKYENQGFVYGKAVGLQFHIEVGARTMKRWIEAYKDELEKKKIDPRLLLETAEREEKVLKGLLRSLLERMVES | soluble |
| MALILTFLGKSGVARTKIAIAAAKLLASQGKRVLLAGLAEPVLPLLLEQTLTPDPQQIAPNLEVVQFQSSVLLERNWEEVKKLEAQYLRTPIIKEVYGQELVVLPGMDSALALNAIREYDASGKYDAIVYDGTGDAFTLRMLGLPESLSWYVRRFRQLFVNSDLGKTIAESPLIQPLISSFFNVNWTADNFAQPTNQVNNFLDKGKEALADPKRVAAFLVTTADPLEVVSVRYLWGSAQQIGLTIGGVIQVSSQTEGDLSAEFTPLEHHHHHH | not soluble |
| MGSDKIHHHHHHMREVFQRLKQAILEKQDTMLLTIGTSSGSTPRSQGARMLVSAEGRIAGTVGGGAVEFQAEQVAKKLVLEKENAQRQFILAPNNIADLGMVCGGNVTIFFHYLSWETPFLKELCESIETHFQNNQQGWLVTELDQNNLGKVSFYSETGELIGSTSWEGELSLLPKGIHCEQKEDIIFLTEAILQVGKVYIFGSGHVARALVPILNYLSFYCVVVDDRPEFLTAQAFPQAEELRVIPLENLAAFIEITADDYGIVITRGHNFDFIVAKQLLETPAKYIGVMGSKHKIASQVRRLKEVGYTMTEIERIFMPIGLDIAAETPEELAISIAGELIQQRYQ | not soluble |
